Results taken from publication PMC3901395, “Multivalent interactions of the SUMO-interaction motifs in RING finger protein 4 determine the specificity for chains of the SUMO” (Biochemical Journal, 2013).

Tests used:
di-SUMO2–GFP–HA2 = test: Proteasomal targeting of di-SUMO2–GFP–HA2 by RNF4 in yeast; assay type: cell-based, S. cerevisiae
From the text: (§1) For expression in Escherichia coli, linear poly-SUMO chains were generated as described previously with slight modifications. After the combined PCR/ligation reaction, the 4×SUMO2-ΔN11 or 4×SUMO1-ΔN15 DNA polymers were separated from smaller polymers by agarose gel electrophoresis and individually extracted (Macherey–Nagel). These were then subjected to a second PCR with primers to create BamHI and XhoI restriction sites, a C-terminal GG motif and a stop codon. The resulting fragments coding for di-, tri- and tetra-SUMO2-ΔN11 or SUMO1-ΔN15 chains were amplified and cloned into pGEX-4T2. […] Each monomer in these chains is separated by RS replacing the natural GG motif. […]
(§2) wt (wild-type) S. cerevisiae strains (JD47-13C) containing centromeric (low copy) plasmids expressing various (SUMO2)n–GFP–HA2 ([…]) fusions were grown overnight in minimal medium composed of 0.67% yeast nitrogen base with 2% raffinose as a carbon source. Cells from the overnight cultures were used to inoculate cultures with minimal media containing 2% galactose at a starting attenuance measured at 600 nm of 0.25. […] The levels of substrates and, as a loading control, levels of CDC11 were analysed by Western blotting and detection with an Odyssey infrared fluorescence imaging system (LI-COR).

tri-SUMO2–GFP–HA2 = test: Proteasomal targeting of tri-SUMO2–GFP–HA2 by RNF4 in yeast; assay type: cell-based, S. cerevisiae; details: yeast coexpressing RNF4; Western blot, normalized to CDC11
From the text: as §1, §2

tetra-SUMO2–GFP–HA2 = test: Proteasomal targeting of tetra-SUMO2–GFP–HA2 by RNF4 in yeast; assay type: cell-based, S. cerevisiae; details: yeast coexpressing RNF4; Western blot, normalized to CDC11
From the text: as §1, §2

[1] = tested on: mono-SUMOs and SUMO chains; test: ITC binding to mono-SUMOs and SUMO chains (general statements); details: full-length dimerized RNF4 vs SIM domain
From the text: as §1, with “motif. A similar strategy was used to design C-terminally GFP–HA2-tagged linear poly-SUMOs in the copper-inducible Ycplac22 vector for expression in S. cerevisiae.” for “motif.”
The mono-SUMOs and linear poly-SUMO1 and poly-SUMO2 proteins as well as all RNF4 constructs were expressed as GST-fusion proteins from E. coli Rosetta™ 2(DE3)pLysS cells (Novagen) cultivated in LB medium with 100 μg/ml ampicillin and 30 μg/ml chloramphenicol after induction with 0.1 mM IPTG at 20°C for 12 h. […]
Binding of peptides and proteins to SUMOs was investigated by ITC using either a VP-ITC or an ITC200 (GE Healthcare). […] Protein concentrations were determined by measuring the absorption at 280 nm. […]

B1: RNF4 FL: full-length human RNF4 (RING finger protein 4); FLAG-tagged in yeast, HA-tagged in HeLa cells (protein)
chain: MSTRKRRGGAINSRQAQKRTREATSTPEISLEAEPIELVETAGDEIVDLTCESLEPVVVDLTHNDSVVIVDERRRPRRNARRLPQDHADSCVVSSDDEELSRDRDVYVTTHTPRNARDEGATGLRPSGTVSCPICMDGYSEIVQNGRLIVSTECGHVFCSQCLRDSLKNANTCPTCRKKINHKRYHPIYI
modifications: left off: GST, end not stated, cleaved
notes: full-length human RNF4 (RING finger protein 4); FLAG-tagged in yeast, HA-tagged in HeLa cells
In the case of B1, the “level of di-SUMO2–GFP–HA reporter (control without RNF4 = 100%)” value (di-SUMO2–GFP–HA2; yeast coexpressing RNF4, Western blot, normalized to CDC11) is reported as “approximately 55%”, the “targeting of di-SUMO2 in yeast” value (di-SUMO2–GFP–HA2; yeast coexpressing wt RNF4) is reported as “efficiently targets di-SUMO2 in yeast” and the “level of tri-SUMO2–GFP–HA reporter (control without RNF4 = 100%)” value (tri-SUMO2–GFP–HA2) is reported as 45%. The “level of tetra-SUMO2–GFP–HA reporter (control without RNF4 = 100%)” value (tetra-SUMO2–GFP–HA2) was 43% and the “binding to SUMO chains compared with the monomeric SIM domain” value [1] was “stronger as compared with the monomeric SIM domain, especially for short SUMO chains”.
